In general, stoichiometry N refers to the number of molecules, sites or subunits per partner or assembly.

The target in this assay is SenDRT9 reverse transcriptase (SenRT), affinity tag cleaved, in complex with its ncRNA (Salmonella enterica). Briefly: cryo-EM structure; 2.5 uM tag-cleaved DRT9 RT-ncRNA complex (hexamer) on Quantifoil grids; D3 symmetry imposed, 2.59 A.

In the case of “SenDRT9 reverse transcriptase (SenRT), affinity tag cleaved, in complex with its ncRNA (enzyme)”, the stoichiometry N came to 6.

The values are drawn from paper PMC12483538.
